Source: patent publication US20130266574A1 (Regeneron, published 2013)
Changes are numbered by the printed parent chain. In names and notes the source's numbering stands.

T1: amino acid residues 26-148 of human ANGPTL4 fused in-line to mouse IgG2a (hANGPTL4-mFc) (human)
T1 chain: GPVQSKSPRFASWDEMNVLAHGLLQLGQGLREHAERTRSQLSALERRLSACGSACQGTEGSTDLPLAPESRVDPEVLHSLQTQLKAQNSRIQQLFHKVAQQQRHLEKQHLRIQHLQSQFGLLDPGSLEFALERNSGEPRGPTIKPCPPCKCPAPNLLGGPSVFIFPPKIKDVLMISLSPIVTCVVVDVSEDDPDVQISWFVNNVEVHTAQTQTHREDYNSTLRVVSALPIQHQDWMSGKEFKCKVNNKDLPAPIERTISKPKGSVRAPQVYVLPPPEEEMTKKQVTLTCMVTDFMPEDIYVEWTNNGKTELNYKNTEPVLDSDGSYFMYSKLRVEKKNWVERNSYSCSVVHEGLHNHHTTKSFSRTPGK

T2: full-length hANGPTL4 (amino acid residues 26-406 of SEQ ID NO:476) with a C-terminal hexa-histidine tag (human, UniProt Q9BY76 26-406)
T2 sequence: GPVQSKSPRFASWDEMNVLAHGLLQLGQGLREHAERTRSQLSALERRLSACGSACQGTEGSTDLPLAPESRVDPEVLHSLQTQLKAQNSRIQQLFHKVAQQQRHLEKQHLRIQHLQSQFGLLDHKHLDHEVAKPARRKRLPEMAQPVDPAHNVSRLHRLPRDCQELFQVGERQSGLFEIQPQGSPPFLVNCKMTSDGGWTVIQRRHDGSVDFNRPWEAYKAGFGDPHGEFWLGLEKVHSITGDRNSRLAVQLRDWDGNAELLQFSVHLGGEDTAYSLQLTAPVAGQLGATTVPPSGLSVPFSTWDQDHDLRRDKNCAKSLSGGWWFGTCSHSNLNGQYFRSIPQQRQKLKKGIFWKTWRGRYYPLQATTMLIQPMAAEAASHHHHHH

B1: H1H292P (antibody, V domains shown)
VH: EVQLVESGGGLVQPGGSLRLSCVASGFTFSSYDMHWVRQLPGKGLEWVSAIGVAGDTYYPASVKGRFTISRENAKNSLYLQMNSLRAGDTAVYYCARGDSGNYYDGDYFDFWGQGTLVTVSS
VL: DIQMTQSPSTLSASVGDRVTITCRASQSINRWLAWYQQKPGKAPKVLIYKASNLESGVPSRFSGSGSGTEFTLTISSLQPDDFATYYCQQYDSYFRTFGQGTKVEIK
notes: Fully human antibody, H1H prefix (human IgG1)
B2: H1H285P (antibody, V domains shown)
VH: EVQLVESGGGLVQPGGSLRLSCAASGFTFSRYDMHWVRQVTGKGLEWVSGIGTAGDTYYPGSVKGRFTISRENDKNSLYLQMNSLRVGDTAVYYCARGDSKNYYVGDYFDYWGQGTLVTVSS
VL: B1 VL with I21F, Q27H, N30G, R31N, K50E, N53S, S56D, S93T
notes: as for B1
B3: H1H257P (antibody, V domains shown)
VH: B2 VH with R31S, T41A, G50A, G61V, D74A, Q81H, V87A, Y94F, K101R
VL: B1 VL with N30S, K50Q, F95S, T97A, Q100R
notes: Fully human antibody; the H1H prefix stands for human IgG1 (said outright only for H1H268P and H1H284P)
B4: H1H624P (antibody, V domains shown)
VH: EVQLVESGGGLVQPGGSLRLSCAASEFIFSSYAMNWVRQAPGKGLEWVSVISGSGDSKYYADSVKGRFTISRDNSKNTLYLQMNSLRVEDTAVYYCAKDGKDRYGFYYNFYGMDVWGQGTTVTVS
VL: DIQMTQSPSFLSASVGDRVTITCWASQGISSYLAWYQQKPGKAPKILIYAASTLQSGVPSRFSASGSGTEFTLTISSLQPEDFATYHCQQLNSYPFTFGPGTKVDIK
notes: as for B1
B5: H1H236N2 (antibody, V domains shown)
VH: EVQLVESGGGLVQPGRSLRLSCAASGFTFDDYAMHWVRQAPGKGLEWVSGISWNSGSIVYADSVKGRFTISRDNAKNSLYLQMNSLISEDTALYYCAKDESSSSGNWFDPWGQGTLVTVSS
VL: EVVMTQSPATLSVSPGERATLSCRASQSVSSNLAWYQQKPGQAPRLLIYGASTRATGIPARFSGSGSGTEFTLTISSLQSEDFAVYYCQEYNNWITFGQGTRLEIK
B6: H1H653P (antibody, V domains shown)
VH: QVQLVESGGGVVQPGRSLRLSCVASGFTFSSYGMHWVRQAPGKGLEWMAVIWYDGSNKYFADSVKDRFTISRDNSKNTLYLQMNTLRPDDTAVYYCVKADAPLLIYGVDVWGQGTTVTVS
VL: DIQMTQSPSSLSASVGDRVTITCRASQGIRNDLGWYQEKPGKAPKRLIYFASSLQSGVPSRFSGSGSGTEFTLTISSLQPEDFATYYCLQHNSYPYTFGQGTKLEIK
notes: as for B1
B7: H4H284P (antibody, human IgG4 S228P, V domains shown)
VH: QVQLVESGGGVVQPGRSLRLSCAASGFTFSSYGMHWVRQAPGKGLEWMAVISFDGGNKNNADSVKGRFTISRDNSKNTLYLQMNSLRAEDTAVYYCAKEGDRSGHPYFYYYGLDVWGQGTTVTVSA
VL: B4 VL with M4L, I46L, A64G, G68E, H87Y, N92H, F96L, P100G, D105E
notes: IgG4 version of H1H284P (constant region replaced)
B8: H4H268P2 (antibody, human IgG4 S228P, V domains shown)
VH: QVQLQQSGAGLLKPSETLSLTCTVYGGSFSIHHWTWIRHPPGKGLEWIGEINHRGSTNYNPSLKSRVTISIDTSKNQFSLKLSAVTAADTAVYYCARGLRFLDWLSSYFDYWGQGTLVTVSS
VL: DIQMTQSPSSLSASVGDRVTITCRASQGISDYLAWYQQKPGKVPNLLIYAASALQSGVPSRFSGSGSGTDFTLTISSLQPEDVATYYCQNYNTAPLTFGGGTKVEIK
notes: IgG4 version of H1H268P
B9: H1H291P (antibody, V domains shown)
VH: EVQLVESGGGLVQPGGSLRLSCAASGFTFSTYDMHWVRQGLGKGLEWVSAIGSAGDTYYPGSVKGRFTISRDNAKSSLFLHMNSLRAGDTALYYCARGDSRNYFVGDYFDYWGQGTLVTVSS
VL: B1 VL with V15I, N30S, R31S, N53S, S56A, T85S, D92S, F95S
notes: as for B1
B10: H1H283P (antibody, V domains shown)
VH: B2 VH with R31S, T41A, G50A, G61V, D74A, Q81H, V87A, Y94F, K101R
VL: B1 VL with N30S, D92N, F95S
notes: as for B1
B11: H1H295P (antibody, V domains shown)
VH: B9 VH with G40A, L41P, H81Q
VL: B1 VL with N30G, R31T, V46I, N53S, S56G, T85N, D92N, Y94F, F95Y
notes: as for B1
B12: H1H644P (antibody, V domains shown)
VH: B2 VH with R31S, T41A, G50A, G61V, D74A, Q81H, V87A, K101R
VL: B1 VL with N30S, D92N, S93T, F95S
notes: as for B1
B13: H1H638P (antibody, V domains shown)
VH: B1 VH with L40V, P41A, S49A, V53T, A61V, Y79S, Q81H, G101R, D105V, F111Y
VL: B1 VL with N30S, N53S, E55K, P80S, D92N, F95S
notes: as for B1

Biological target: T1, amino acid residues 26-148 of human …
Assay: cell-based or functional assay

Row | % Inhibition of hANGPTL4 Activity (LPL lipase test), hANGPTL4-mFc (2 nM) | Binder
1 | 20% | B1
2 | 28% | B2
3 | 16% | B3
4 | 62% | B4
5 | 13% | B5
6 | 55% | B6

These binders were tested against T2, full-length hANGPTL4 (amino acid …) (assay: cell-based or functional assay).

Row | % Inhibition of hANGPTL4 Activity (LPL lipase test), hANGPTL4-His (10 nM) | Binder
7 | 53% | B1
8 | 47% | B2
9 | 48% | B4
10 | 19% | B5
11 | 48% | B6

Biological target: T1, amino acid residues 26-148 of human …
Assay: cell-based or functional assay
Remark: another data set of the same source

Row | IC50 (nM) in the LPL inhibition assay, constant ANGPTL4 2 nM | Binder
12 | 1.69 nM | B7
13 | 1.85 nM | B8

Biological target: T2, full-length hANGPTL4 (amino acid …)
Assay: cell-based or functional assay
Remark: another data set of the same source

Row | IC50 (nM) in the LPL inhibition assay, constant ANGPTL4 10 nM | Binder
14 | 1.19 nM | B7
15 | 1.61 nM | B8

Biological target: T1, amino acid residues 26-148 of human …
Assay: SPR (Biacore), pH 7.4, 25° C., protocol of Example 3
Method: (§1) Antigen-antibody binding and dissociation were monitored in real time at 25° C. and 37° C. Kinetic analysis was performed to calculate KD and half-life of antigen/antibody complex dissociation.
Furthermore, a single amino acid substitution was introduced in the framework region 1 of H1H268P (SEQ ID NO:42) to form H4H268P2 (SEQ ID NO:487) in the IgG4 version.

Row | Kd | t1/2 | Binder
16 | 0.143 nM | 3.42 h | B7
17 | 0.146 nM | 3.25 h | B8

Biological target: T1, amino acid residues 26-148 of human …
Assay: SPR (Biacore T100), hANGPTL4-mFc captured by anti-mouse IgG, antibody injected, 25° C.
Method: as §1

Row | Kd | t1/2 | Binder
18 | 0.136 nM | 1.87 h | B1
19 | 0.0876 nM | 5.05 h | B9
20 | 0.0925 nM | 2.6 h | B2
21 | 0.13 nM | 1.98 h | B10
22 | 0.0307 nM | 14.6 h | B11
23 | 0.111 nM | 2.4 h | B12
24 | 0.201 nM | 1.52 h | B3
25 | 0.193 nM | 1.42 h | B13
26 | 1.19 nM | 0.117 h | B4
27 | 0.411 nM | 0.717 h | B6

Biological target: T1, amino acid residues 26-148 of human …
Assay: SPR (Biacore T100), hANGPTL4-mFc captured by anti-mouse IgG, antibody injected, 37° C.
Method: as §1

Row | Kd | t1/2 | Binder
28 | 0.167 nM | 1.47 h | B1
29 | 0.178 nM | 2.03 h | B9
30 | 0.194 nM | 1.18 h | B2
31 | 1.36 nM | 0.2 h | B10
32 | 2.62 nM | 0.167 h | B11
33 | 3 nM | 0.1 h | B12
34 | 0.238 nM | 1.05 h | B3
35 | 0.299 nM | 0.8 h | B13
36 | 3.71 nM | 0.05 h | B4
37 | 2.13 nM | 0.1 h | B6
